The values that follow come from patent publication US20220146535A1.

Test [1] deals with recombinant hTau-pT217 protein having the amino acid sequence of SEQ ID NO: 1 (human) (UniProt P10636). Put plainly: BLI (Octet Red96), antibody captured on Protein A biosensor, hTau-pT217 in solution, 1:1 fit, 25 C; column head prints (M^-1s^-1 units), paragraph 52 says s^-1. Background: In BLI a coated tip is dipped into the sample, and binding shifts an interference pattern.
For test [2] the target is unchanged. The test can be described thus: BLI (Octet Red96), antibody captured on Protein A biosensor, hTau-pT217 in solution, KD=koff/kon; column head prints (nM), paragraph 52 says molar units; not normalized for avidity.
For test [3] the target is unchanged. Put plainly: BLI (Octet Red96), antibody captured on Protein A biosensor, hTau-pT217 0.4115-300 nM in solution, 1:1 fit, 25 C.
For test [4], the target named is N-terminal biotin labeled peptide of SEQ ID NO. 26 with phosphorylated threonine at residue 7 (human). Put plainly: BLI (Octet Red96), biotinylated peptide on streptavidin biosensor, IgG at 5 ug/mL, 300 s association and 300 s dissociation.
Test [5] addresses T1, N-terminal biotin labeled peptide of SEQ ID NO. 26 without phosphorylated threonine at residue 7 (human).
T1 sequence (peptide, N-terminal biotin; threonine at residue 7 not phosphorylated): RTPSLPTPPTR
The test is described as above.

UniProt P10636, sequence (P10636 other isoform, or with tags, fused parts or gaps limits assumed): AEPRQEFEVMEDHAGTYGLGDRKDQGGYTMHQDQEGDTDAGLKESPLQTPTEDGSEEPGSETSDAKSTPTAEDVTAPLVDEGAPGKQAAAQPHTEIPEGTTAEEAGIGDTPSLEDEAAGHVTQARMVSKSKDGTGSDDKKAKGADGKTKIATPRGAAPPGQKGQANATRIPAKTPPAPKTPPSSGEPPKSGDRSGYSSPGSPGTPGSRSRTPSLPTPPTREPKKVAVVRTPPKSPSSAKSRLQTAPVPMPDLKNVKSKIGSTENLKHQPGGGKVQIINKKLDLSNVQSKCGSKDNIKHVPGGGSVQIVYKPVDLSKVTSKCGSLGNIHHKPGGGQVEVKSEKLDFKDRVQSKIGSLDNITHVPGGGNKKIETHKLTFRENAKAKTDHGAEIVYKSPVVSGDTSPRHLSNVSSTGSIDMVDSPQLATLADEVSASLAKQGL

B1: mAb A, exemplified rabbit anti-hTau-pT217 antibody (antibody)
heavy: QSVEESGGRLVTPGTPLTLTCTVSGLSPSWYGVHWVRQAPGKGLEWIGVLRAGSHTYYAGWAKGRFAISKTSTTVALKITSPTTEDTAIYFCGSVGRGIWGPGTLVTVSLGQPKAPSVFPLAPCCGDTPSSTVTLGCLVKGYLPEPVTVTWNSGTLTNGVRTFPSVRQSSGLYSLSSVVSVTSSSQPVTCNVAHPATNTKVDKTVAPSTCSKPTCPPPELLGGPSVFIFPPKPKDTLMISRTPEVTCVVVDVSQDDPEVQFTWYINNEQVRTARPPLREQQFNSTIRVVSTLPIAHQDWLRGKEFKCKVHNKALPAPIEKTISKARGQPLEPKVYTMGPPREELSSRSVSLTCMINGFYPSDISVEWEKNGKAEDNYKTTPAVLDSDGSYFLYSKLSVPTSEWQRGDVFTCSVMHEALHNHYTQKSISRSPGK
light: AQVLTQTASPVSATVGGTVTINCQASLAVYNNNYLAWYQQKPGQPPKRLIYLASSLSSGVSSHFKGSGSGTQFTLTISDVQADDAATYFCQGSYDCTIADCVAFGGGTEVVVKGDPVAPTVLIFPPAADQVATGTVTIVCVANKYFPDVTVTWEVDGTTQTTGIENSKTPQNSADNTYNLSSTLTLTSTQYNSHKEYTCKVTQGTTSVVQSFNRGDC
One may read the koff as the first-order rate constant of dissociation. In general, kon refers to a measure of how fast the partners come together. Turning to B1, the koff in test [1] was determined as 0.000236 s⁻¹. The Kd in test [2] was determined as 0.695 nM. Besides, the kon in test [3] turned out to be 339000 M⁻¹ s⁻¹. Besides, the values for the binding signal at the end of dissociation in test [4] and in test [5] were 4.42 nm and -0.0024 nm, respectively.
